Experimental data from US20230265215A1 (OMEROS, published 2023).
Several values for one entry are separate records, joined by “and”; a condition that tells them apart may be missing. Equal entries are not always repeated.

Tests used:
[1] = biological target: Recombinant human MASP-2 (specificity ELISA, Example 14) (human, UniProt O00187 16-686, limits assumed); test: solid phase ELISA, immobilized protease, apparent KD by 4-parameter logistic fit
Description: (§1) The apparent dissociation constant (KD) was estimated by nonlinear regression using a 4-parameter logistic model.
Fold selectivity calculated as KD(related serine protease)/mean KD(MASP-2).

MASP-1 = biological target: T1, MASP-1 (human, UniProt P48740 20-699, limits assumed); test: solid phase ELISA, immobilized protease, apparent KD
T1 construct: Species read from 'Recombinant human MASP-2 or C1r, C1s, CFD, MASP-1 and MASP-3'
T1 sequence (looked up): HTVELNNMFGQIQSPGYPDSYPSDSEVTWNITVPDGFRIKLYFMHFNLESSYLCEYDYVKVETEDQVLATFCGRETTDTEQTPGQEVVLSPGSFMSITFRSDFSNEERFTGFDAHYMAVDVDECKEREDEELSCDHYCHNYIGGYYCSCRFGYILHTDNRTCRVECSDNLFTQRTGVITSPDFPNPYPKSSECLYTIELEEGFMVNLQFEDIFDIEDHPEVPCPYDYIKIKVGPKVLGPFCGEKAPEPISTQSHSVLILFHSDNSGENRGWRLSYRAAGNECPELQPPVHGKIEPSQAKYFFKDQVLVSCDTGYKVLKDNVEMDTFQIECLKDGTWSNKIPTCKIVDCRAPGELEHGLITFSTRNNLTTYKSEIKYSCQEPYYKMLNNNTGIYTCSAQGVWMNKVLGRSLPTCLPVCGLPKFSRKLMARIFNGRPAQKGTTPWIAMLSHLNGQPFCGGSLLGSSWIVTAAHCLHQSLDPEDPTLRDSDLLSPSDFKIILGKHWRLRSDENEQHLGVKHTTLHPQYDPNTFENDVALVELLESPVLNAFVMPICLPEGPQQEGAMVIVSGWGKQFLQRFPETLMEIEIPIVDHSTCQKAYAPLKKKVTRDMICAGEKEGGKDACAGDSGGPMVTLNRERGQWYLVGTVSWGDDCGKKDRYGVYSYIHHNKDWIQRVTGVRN
Description: as §1

C1s = biological target: T2, C1s (human, UniProt P09871 16-688, limits assumed); test: as above
T2 construct: Species read from 'Recombinant human MASP-2 or C1r, C1s, CFD, MASP-1 and MASP-3'
T2 sequence (looked up): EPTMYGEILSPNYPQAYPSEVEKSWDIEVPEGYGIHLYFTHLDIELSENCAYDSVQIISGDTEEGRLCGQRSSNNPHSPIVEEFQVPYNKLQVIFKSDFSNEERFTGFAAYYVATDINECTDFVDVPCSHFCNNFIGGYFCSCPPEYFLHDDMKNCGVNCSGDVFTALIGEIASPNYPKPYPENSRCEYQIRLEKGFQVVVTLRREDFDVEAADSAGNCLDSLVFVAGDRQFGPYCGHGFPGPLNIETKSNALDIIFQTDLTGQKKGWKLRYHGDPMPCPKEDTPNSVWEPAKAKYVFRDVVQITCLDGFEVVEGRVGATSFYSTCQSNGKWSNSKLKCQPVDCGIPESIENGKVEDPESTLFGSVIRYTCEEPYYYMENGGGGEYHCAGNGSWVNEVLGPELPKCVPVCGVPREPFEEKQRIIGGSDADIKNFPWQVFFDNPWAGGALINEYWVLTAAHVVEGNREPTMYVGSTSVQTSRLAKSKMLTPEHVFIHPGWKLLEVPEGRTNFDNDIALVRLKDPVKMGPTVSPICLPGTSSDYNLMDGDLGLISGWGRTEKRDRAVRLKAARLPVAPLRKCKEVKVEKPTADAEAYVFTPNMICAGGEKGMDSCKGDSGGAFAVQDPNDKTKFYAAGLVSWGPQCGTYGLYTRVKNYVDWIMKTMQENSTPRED
Description: as §1

CFD = biological target: T3, CFD (human, UniProt P00746 26-253, limits assumed); test: as above
T3 construct: Species read from 'Recombinant human MASP-2 or C1r, C1s, CFD, MASP-1 and MASP-3'; also called factor D; complement factor D
T3 sequence (P00746 26-253 limits assumed): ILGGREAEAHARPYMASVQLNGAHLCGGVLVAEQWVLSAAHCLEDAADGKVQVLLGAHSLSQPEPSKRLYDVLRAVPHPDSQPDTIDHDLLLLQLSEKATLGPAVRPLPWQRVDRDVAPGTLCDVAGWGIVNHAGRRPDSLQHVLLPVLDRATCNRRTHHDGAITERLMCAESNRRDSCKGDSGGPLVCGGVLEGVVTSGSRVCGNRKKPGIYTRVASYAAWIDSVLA
Description: as §1

MASP-3 = biological target: T4, MASP-3 (human, UniProt P48740-2 20-728, limits assumed); test: as above
T4 construct: Species read from 'Recombinant human MASP-2 or C1r, C1s, CFD, MASP-1 and MASP-3'
T4 sequence (looked up): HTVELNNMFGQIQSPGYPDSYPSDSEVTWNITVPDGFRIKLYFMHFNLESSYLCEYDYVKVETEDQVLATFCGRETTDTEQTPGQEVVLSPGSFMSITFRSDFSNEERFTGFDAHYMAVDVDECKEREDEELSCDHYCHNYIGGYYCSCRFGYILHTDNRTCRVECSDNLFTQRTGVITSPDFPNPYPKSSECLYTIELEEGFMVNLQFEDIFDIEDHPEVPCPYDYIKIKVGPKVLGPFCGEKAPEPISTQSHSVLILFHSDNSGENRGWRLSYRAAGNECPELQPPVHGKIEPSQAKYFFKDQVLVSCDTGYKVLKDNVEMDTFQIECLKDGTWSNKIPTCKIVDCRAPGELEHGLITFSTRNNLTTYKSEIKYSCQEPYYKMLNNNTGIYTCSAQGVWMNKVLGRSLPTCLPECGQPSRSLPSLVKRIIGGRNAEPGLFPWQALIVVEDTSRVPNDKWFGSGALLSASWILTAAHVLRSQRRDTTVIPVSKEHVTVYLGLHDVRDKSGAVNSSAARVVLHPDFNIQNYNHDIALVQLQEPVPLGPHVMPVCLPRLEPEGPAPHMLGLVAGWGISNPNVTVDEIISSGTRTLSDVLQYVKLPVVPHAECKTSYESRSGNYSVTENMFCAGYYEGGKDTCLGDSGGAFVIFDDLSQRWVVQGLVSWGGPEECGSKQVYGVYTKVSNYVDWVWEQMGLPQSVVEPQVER
Description: as §1

Sequence of Recombinant human MASP-2 (specificity ELISA, Example 14) (O00187 16-686 limits assumed): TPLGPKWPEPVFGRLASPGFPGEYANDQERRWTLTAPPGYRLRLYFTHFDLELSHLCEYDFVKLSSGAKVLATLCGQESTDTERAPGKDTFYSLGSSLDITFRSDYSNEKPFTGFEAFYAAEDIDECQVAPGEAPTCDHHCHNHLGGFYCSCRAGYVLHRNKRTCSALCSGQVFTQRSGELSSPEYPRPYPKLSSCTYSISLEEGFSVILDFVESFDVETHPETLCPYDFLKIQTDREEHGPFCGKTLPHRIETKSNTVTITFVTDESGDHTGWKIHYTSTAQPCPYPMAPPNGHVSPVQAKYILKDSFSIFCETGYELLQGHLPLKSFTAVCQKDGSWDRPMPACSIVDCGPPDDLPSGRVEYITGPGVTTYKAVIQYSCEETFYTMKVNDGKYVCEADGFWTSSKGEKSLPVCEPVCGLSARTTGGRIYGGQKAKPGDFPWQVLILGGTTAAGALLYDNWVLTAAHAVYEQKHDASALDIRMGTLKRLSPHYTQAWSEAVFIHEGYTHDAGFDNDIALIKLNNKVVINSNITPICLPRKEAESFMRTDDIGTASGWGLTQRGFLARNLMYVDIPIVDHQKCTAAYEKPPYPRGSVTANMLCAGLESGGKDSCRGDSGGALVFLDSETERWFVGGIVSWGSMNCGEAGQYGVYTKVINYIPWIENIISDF

B1: mAb OMS858 (humanized anti-MASP-2 antibody) (antibody, V domains shown)
VH: QVQLVQSGAEVKKPGASVKVSCKASGYTFTNHHMHWLRQAPGQGLEWIGDIDASDSETHYIEKFKDRATLTIDKSSSTAYMELSSLRSEDTAVYYCARGDITTTLRYFDVWGQGTLVTVSS
VL: DIQLTQSPSSLSASVGDRVTITCSASSSVRYMYWYQQKPGKAPKLLIYDTSNLASGVPSRFSGSGSGTDNTLTISSLQPEDFATYYCQQWSSYPLTFGQGTKVEIKR
notes: also called antibody OMS858; biotinylated OMS858
B1 was tested, and the Kd [1] was 0.042 µg/mL and 0.051 µg/mL, the Kd (MASP-1) was > 100 µg/mL and the Kd (C1s) was > 100 µg/mL. For the same binder, the Kd (CFD) was > 100 µg/mL and the Kd (MASP-3) was > 100 µg/mL.
